The results in this text go back to patent publication US20170157165A1.

This assay addresses Human FGF2 (manufactured by Peprotech Inc.) (human) (UniProt P09038). Nature of the assay: cell-based or functional assay.

Chain of Human FGF2 (manufactured by Peprotech Inc.) (human) (P09038 135-288 limits assumed): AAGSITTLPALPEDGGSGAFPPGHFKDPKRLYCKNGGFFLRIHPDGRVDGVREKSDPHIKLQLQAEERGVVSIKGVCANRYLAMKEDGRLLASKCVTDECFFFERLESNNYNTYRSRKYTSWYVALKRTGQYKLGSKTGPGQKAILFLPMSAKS

In the case of “anti-FGF2 antibody Anti-FGF, basic (Ab-3) Mouse mAb (3H3) (manufactured by Calbiochem)”, the inhibitory rate (%) of FGF2-dependent growth of HUVEC cells; 3H3 (1 nM) + FGF2 (500 pM) worked out at 8.5%, the inhibitory rate (%) of FGF2-dependent growth of HUVEC cells; 3H3 (5 nM) + FGF2 (500 pM) came to 30% and the inhibitory rate (%) of FGF2-dependent growth of HUVEC cells; 3H3 (25 nM) + FGF2 (500 pM) was determined as 100%.
